Target: the molecule itself
Assay: cross-linking; glutaraldehyde (final 0.001-0.002% v/v in refolding buffer) on refolded NS2-3 precursor (0.2 uM), 50 ul, 25 °C, 5 min; SDS-PAGE and western blot with anti-FLAG; monomer to dimer

B1: JFH-1 NS2-3 wild-type precursor (HCV genotype 2a NS2-3 autoprotease, residues 907-1210) (domain or fragment)
chain: RAALTHVPYFVRAHALIRVCALVKQLAGGRYVQVALLALGRWTGTYIYDHLTPMSDWAASGLRDLAVAVEPIIFSPMEKKVIVWGAETAACGDILHGLPVSARLGQEILLGPADGYTSKGWKLLAPITAYAQQTRGLLGAIVVSMTGRDRTEQAGEVQILSTVSQSFLGTTISGVLWTVYHGAGNKTLAGLRGPVTQMYSSAEGDLVGWPSPPGTKSLEPCKCGAVDLYLVTRNADVIPARRRGDKRGALLSPRPISTLKGSSGGPVLCPRGHVVGLFRAAVCSRGVAKSIDFIPVETLDVVTR
notes: The wild type auto-cleaves at 25 °C with about 30% efficiency overnight; also called WT NS2-3; NS2-3 precursor; not shown: FLAG, C-terminal, kept
B1 was tested, and the “stoichiometry N” value was 2.

Reference: paper PMC2824112, “A comparative analysis of the fluorescence properties of the wild-type and active site mutants of the hepatitis C virus autoprotease NS2-3” (Biochimica et Biophysica Acta, 2010)
